Drawing on US20090232783, “Method for Regulating Production of Hemoglobin Beta Chains” (published 2009), this text covers binding signal for 3 molecules.

The labels stand for the following.
B1: mutant oligo no. 2 (dsDNA)
DNA 1: AACTCCTAAGCCAGTGCCAGAAAAAACAAGGACAGGT
DNA 2: ACCTGTCCTTGTTTTTTCTGGCACTGGCTTAGGAGTT
B2: mutant oligo no. 1 (dsDNA)
DNA 1: AAGGGGGGAGCCAGTGCCAGAAGAGCCAAGGACAGGT
DNA 2: ACCTGTCCTTGGCTCTTCTGGCACTGGCTCCCCCCTT
B3: mutant oligo no. 3 (dsDNA)
DNA 1: AACTCCTAAGCCAGTGCCAGAACAGCCAACCCCCCGT
DNA 2: ACGGGGGGTTGGCTGTTCTGGCACTGGCTTAGGAGTT

The data set has as its target Nuclear ferritin-H (K562 nuclear extract, crude or heat/proteinase K enriched) (Homo sapiens, UniProt P02794 P02794:2-183). Description: competition; competes about as well as wt. Conditions: protein: extract. The method, then: Gel mobility shift assays. Gel retardation assays (i.e., gel shifts) were used to determine DNA binding of the extract proteins to the Rsa I (95 bp) fragment and synthetic oligonucleotides (Berg et al., (1989) Nucleic Acids Res 17, 8833-52; Fried & Crothers (1981) Nucleic Acids Res 9, 6505-25). Each reaction contained 0.5-2 ng of DNA, 1.0-5.0 ug of extract protein, 1.0-5.0 ug of poly dI:poly dC, 100 mM KCl, and binding buffer (Berg et al., (1989) Nucleic Acids Res 17, 8833-52). Unlabeled competitor oligonucleotides ranged from 15- to 2000-fold molar excess and were included in the reaction mixture with the probe before adding protein. Gels used for retardation assays were 4%, 5%, or 6% acrylamide and the running buffer was low ionic strength TAE (Berg et al., (1989) Nucleic Acids Res 17, 8833-52).
Definition of the binding site with competition gel shifts. To further localize the binding of ferritin, the 37 bp oligonucleotide was mutated in different places, replacing six nucleotides at a time with all A's, all C's, or all G's, with complementary nucleotide replacements in the opposing strand (FIG. 4A). A competition gel shift assay was done with the partially purified protein from heated K562 nuclear extract, in which each of the unlabeled mutant oligos as well as the native sequence was competed against the 32-P-labeled native sequence for binding.
Regarding B1, the binding signal was roughly 1 fold.

As for B2, the binding signal is roughly 1 fold.

Turning to B3, the binding signal is roughly 1 fold.
